The values below come from PMC7437470.

The target of assay [1] is Porcine Kallikrein (porcine). The assay is described as follows: enzyme inhibition kinetics (Morrison equation); serial dilution of the serpin, pre-incubated with the protease before the fluorogenic substrate; kallikrein 15 nM with Gly-Pro-Arg-NHMec 9.1 uM, chymotrypsin 2 ug/mL with Ala-Ala-Pro-Phe-NHMec 42.9 uM; 37°C; sodium acetate buffer pH 7.0; Ki from apparent Ki; triplicate.

Assay [2] concerns the target Porcine Kallikrein (porcine).
Assay [3] concerns the target Bovine α-Chymotrypsin (bovine). The assay is described as follows: enzyme inhibition kinetics (Morrison equation); serial dilution of the serpin, pre-incubated with the protease before the fluorogenic substrate; kallikrein 15 nM with Gly-Pro-Arg-NHMec 9.1 uM, chymotrypsin 2 ug/mL with Ala-Ala-Pro-Phe-NHMec 42.9 uM; 37°C; sodium acetate buffer pH 7.0; Ki from apparent Ki; triplicate.

Assay [4] addresses Human Neutrophil elastase (human) (UniProt P08246).
Another assay deals with Human Chymase (human) (UniProt P23946).
In assay [5] the target is Human Cathepsin G (human) (UniProt P08311).
Sequence of UniProt P08311 (P08311 21-244): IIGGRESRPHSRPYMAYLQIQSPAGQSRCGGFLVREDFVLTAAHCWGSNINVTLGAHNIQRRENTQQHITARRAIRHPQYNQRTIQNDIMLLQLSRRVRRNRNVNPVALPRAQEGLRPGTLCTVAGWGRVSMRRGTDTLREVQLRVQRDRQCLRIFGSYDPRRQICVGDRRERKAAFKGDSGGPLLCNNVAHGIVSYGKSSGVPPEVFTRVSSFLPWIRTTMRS

Sequence of Porcine Kallikrein (porcine) (P00752 other isoform, or with tags, fused parts or gaps): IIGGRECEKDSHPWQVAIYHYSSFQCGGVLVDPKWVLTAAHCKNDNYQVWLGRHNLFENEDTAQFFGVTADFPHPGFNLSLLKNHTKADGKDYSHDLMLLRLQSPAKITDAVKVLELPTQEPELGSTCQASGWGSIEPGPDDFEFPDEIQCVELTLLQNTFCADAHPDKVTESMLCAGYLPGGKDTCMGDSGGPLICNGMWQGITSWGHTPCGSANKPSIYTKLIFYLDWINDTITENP
Sequence of UniProt P08246 (P08246 30-267): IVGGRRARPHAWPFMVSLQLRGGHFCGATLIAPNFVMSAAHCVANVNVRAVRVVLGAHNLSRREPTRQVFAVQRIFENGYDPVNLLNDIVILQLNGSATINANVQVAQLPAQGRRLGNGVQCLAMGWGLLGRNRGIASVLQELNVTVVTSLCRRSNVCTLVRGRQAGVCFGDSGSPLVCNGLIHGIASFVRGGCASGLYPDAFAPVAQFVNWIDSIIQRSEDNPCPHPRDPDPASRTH
Sequence of UniProt P23946 (P23946 22-247): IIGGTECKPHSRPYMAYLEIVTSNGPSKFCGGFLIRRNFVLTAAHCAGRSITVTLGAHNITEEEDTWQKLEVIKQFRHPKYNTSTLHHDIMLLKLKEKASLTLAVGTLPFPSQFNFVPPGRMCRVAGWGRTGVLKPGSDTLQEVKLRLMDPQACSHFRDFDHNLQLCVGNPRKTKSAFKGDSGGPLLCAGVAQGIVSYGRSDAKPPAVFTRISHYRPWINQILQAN

For the substance “recombinant Fasciola hepatica serpin 1 (natural protein)”, the Ki in assay [1] is 40 nM. Besides, the inhibition of kallikrein (150 nM) activity on a fluorogenic substrate, rFhSrp1 at 10 and 500 nM (48% at 10 nM) in assay [2] came to 96%.

For the substance “recombinant Fasciola hepatica serpin 2 (natural protein)”, the Ki in assay [3] stood at 0.07 nM. Also, the inhibition of neutrophil elastase (50 nM) activity on a fluorogenic substrate, rFhSrp2 at 10 and 500 nM (only slightly changed at 10 nM) in assay [4] turned out to be 99.9%. The same substance came in with an inhibition of chymase (0.6 uM) activity on a fluorogenic substrate, rFhSrp2 at 10 and 500 nM (only slightly changed at 10 nM) with Human Chymase (human) of 100%. In assay [5], this substance displayed an inhibition of cathepsin G (100 nM) activity on a fluorogenic substrate, rFhSrp2 at 10 and 500 nM (only slightly changed at 10 nM) of 97.5%.
